Here are results for 3 substances from publication PMC9676983.

Holding throughout (experiment): SEC
Experiment [1] has as its target α-synuclein A53T (UniProt P37840).
In experiment [2] the target is α-synuclein A30P (UniProt P37840).
The target of experiment [3] is α-synuclein E46K (UniProt P37840).

The substance “α-synuclein A53T (from UniProt P37840 1-140) (natural protein)” gave a fraction of oligomers in experiment [1] of 87.8%. The substance “α-synuclein A30P (from UniProt P37840 1-140) (natural protein)” had a fraction of oligomers in experiment [2] of 71.6%.

In experiment [3], “α-synuclein E46K (from UniProt P37840 1-140) (natural protein)” returned a fraction of oligomers of 92.1%.
